This is an account of results in the RNAGym collection of RNA variant scans (doi:10.1093/molbev/msab373).

The chains are these.
B1: Azoarcus group I ribozyme (parent)
chain: GUGCCUUGCGCCGGGAAACCACGCAAGGGAUGGUGUCAAAUUCGGCGAAACCUAAGCGCCCGCCCGGGCGUAUGGCAACGCCGAGCCAAGCUUCGGCGCCUGCGCCGAUGAAGGUGUAGAGACUAGACGGCACCCACCUAAGGCAAACGCUAUGGUGAAGGCAUAGUCCAGGGAGUGGCGAAAGUCACACAAACCGG

In this data set the parent is B1. In words: reverse-splicing fitness (ratio to wild type); higher = more active; in vitro selection; Mg2+ level not given. The essentials:
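An in vitro group I ribozyme library with randomized positions was T7-transcribed and gel-purified. In triplicate, 10 pmol RNA in EPPS pH 7.5 was reacted with 50 pmoles of a 30-nt RNA substrate for 1 h at 37 °C across several added MgCl2 levels (1–48 mM), then stopped with EDTA. Products were reverse transcribed from a substrate-complementary primer, PCR-amplified and sequenced (HiSeq 4000). Fitness is a variant's read proportion after selection over that before, normalised to wild type.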
Take GUGCCUUGCGCCGGGAAACCACGCAAGGGAUGGUGUCAAAUUCGGCGAAACCUAAGCGCCCGCCCGGGCGUAUGGCAACGCCGAGCCAAGCUUCGGCGCCUGCGCCGAUGGAGGUGUAGAGACUAGACGGCACCCACCUAAGGCUAACGGUAUGGUGAAGGCAUAGUCGAGGGAGUGGCGAAAGUCACACAAACCGG: the reverse-splicing fitness is 0.0152.
As for GUGCCUUGCGCCGGGAAACCACGCAAGGGAUGGUGUCAAAUUCGGCGAAACCUAAGCGCCCGCCCGGGCGUAUGGCAACGCGGAGCCAAGCUUCGGCGCCUGCGCCGAUGGAGGUGUAGUGACUAGACGGCACCCACCUAAGGCUAACGUUAUGGUGAAGGCAUAGUCCAGGGAGUGGCGAAAGUCACACAAACCGG, the figure is 0.04.
Regarding GUGCCUUGCGCCGGGAAACCACGCAAGGGAUGGUGUCAAAUUCGGCGAAACCUAAGCGCCCGCCCGGGCGUAUGGCAACGCUGAGCCAAGCUUCGGCGCCUGCGCCGAUGCAGGUGUAGGGACUAGACGGCACCCACCUAAGGCGAACGCUAUGGUGAAGGCAUAGUCCAGGGAGCGGCGAAAGUCACACAAACCGG, the reverse-splicing fitness was 0.0199.
To GUGCCUUGCGCCGGGAAACCACGCAAGGGAUGGUGUCAAAUUCGGCGAAACCUAAGCGCCCGCCCGGGCGUAUGGCAACGCGGAGCCAAGCUUCGGCGCCUGCGCCGAUGUAGGUGUAGAGACUAGACGGCACCCACCUAAGGCGAACGCUAUGGUGAAGGCAUAGUCAAGGGAGAGGCGAAAGUCACACAAACCGG belongs 0.0174; to GUGCCUUGCGCCGGGAAACCACGCAAGGGAUGGUGUCAAAUUCGGCGAAACCUAAGCGCCCGCCCGGGCGUAUGGCAACGCAGAGCCAAGCUUCGGCGCCUGCGCCGAUGCAGGUGUAGAGACUAGACGGCACCCACCUAAGGCUAACGUUAUGGUGAAGGCAUAGUCGAGGGAGCGGCGAAAGUCACACAAACCGG, 0.0179.
As for GUGCCUUGCGCCGGGAAACCACGCAAGGGAUGGUGUCAAAUUCGGCGAAACCUAAGCGCCCGCCCGGGCGUAUGGCAACGCAGAGCCAAGCUUCGGCGCCUGCGCCGAUGCAGGUGUAGGGACUAGACGGCACCCACCUAAGGCUAACGUUAUGGUGAAGGCAUAGUCUAGGGAGUGGCGAAAGUCACACAAACCGG, the figure is 0.00924; as for GUGCCUUGCGCCGGGAAACCACGCAAGGGAUGGUGUCAAAUUCGGCGAAACCUAAGCGCCCGCCCGGGCGUAUGGCAACGCAGAGCCAAGCUUCGGCGCCUGCGCCGAUGCAGGUGUAGGGACUAGACGGCACCCACCUAAGGCAAACGGUAUGGUGAAGGCAUAGUCAAGGGAGGGGCGAAAGUCACACAAACCGG, 0.00659; as for GUGCCUUGCGCCGGGAAACCACGCAAGGGAUGGUGUCAAAUUCGGCGAAACCUAAGCGCCCGCCCGGGCGUAUGGCAACGCGGAGCCAAGCUUCGGCGCCUGCGCCGAUGAAGGUGUAGAGACUAGACGGCACCCACCUAAGGCAAACGAUAUGGUGAAGGCAUAGUCGAGGGAGAGGCGAAAGUCACACAAACCGG, 0.0179.
Consider GUGCCUUGCGCCGGGAAACCACGCAAGGGAUGGUGUCAAAUUCGGCGAAACCUAAGCGCCCGCCCGGGCGUAUGGCAACGCUGAGCCAAGCUUCGGCGCCUGCGCCGAUGUAGGUGUAGCGACUAGACGGCACCCACCUAAGGCCAACGAUAUGGUGAAGGCAUAGUCGAGGGAGUGGCGAAAGUCACACAAACCGG, for which the reverse-splicing fitness came out at 0.00632.
GUGCCUUGCGCCGGGAAACCACGCAAGGGAUGGUGUCAAAUUCGGCGAAACCUAAGCGCCCGCCCGGGCGUAUGGCAACGCCGAGCCAAGCUUCGGCGCCUGCGCCGAUGGAGGUGUAGGGACUAGACGGCACCCACCUAAGGCUAACGCUAUGGUGAAGGCAUAGUCAAGGGAGAGGCGAAAGUCACACAAACCGG: the reverse-splicing fitness was 0.0397.
To GUGCCUUGCGCCGGGAAACCACGCAAGGGAUGGUGUCAAAUUCGGCGAAACCUAAGCGCCCGCCCGGGCGUAUGGCAACGCUGAGCCAAGCUUCGGCGCCUGCGCCGAUGCAGGUGUAGGGACUAGACGGCACCCACCUAAGGCAAACGUUAUGGUGAAGGCAUAGUCGAGGGAGCGGCGAAAGUCACACAAACCGG belongs 0.0161; to GUGCCUUGCGCCGGGAAACCACGCAAGGGAUGGUGUCAAAUUCGGCGAAACCUAAGCGCCCGCCCGGGCGUAUGGCAACGCGGAGCCAAGCUUCGGCGCCUGCGCCGAUGAAGGUGUAGGGACUAGACGGCACCCACCUAAGGCGAACGAUAUGGUGAAGGCAUAGUCUAGGGAGUGGCGAAAGUCACACAAACCGG, 0.011; to GUGCCUUGCGCCGGGAAACCACGCAAGGGAUGGUGUCAAAUUCGGCGAAACCUAAGCGCCCGCCCGGGCGUAUGGCAACGCAGAGCCAAGCUUCGGCGCCUGCGCCGAUGAAGGUGUAGAGACUAGACGGCACCCACCUAAGGCCAACGCUAUGGUGAAGGCAUAGUCGAGGGAGGGGCGAAAGUCACACAAACCGG, 0.00402.
For the variant GUGCCUUGCGCCGGGAAACCACGCAAGGGAUGGUGUCAAAUUCGGCGAAACCUAAGCGCCCGCCCGGGCGUAUGGCAACGCGGAGCCAAGCUUCGGCGCCUGCGCCGAUGCAGGUGUAGUGACUAGACGGCACCCACCUAAGGCAAACGAUAUGGUGAAGGCAUAGUCCAGGGAGGGGCGAAAGUCACACAAACCGG, the reverse-splicing fitness was 0.00333.
To GUGCCUUGCGCCGGGAAACCACGCAAGGGAUGGUGUCAAAUUCGGCGAAACCUAAGCGCCCGCCCGGGCGUAUGGCAACGCCGAGCCAAGCUUCGGCGCCUGCGCCGAUGUAGGUGUAGUGACUAGACGGCACCCACCUAAGGCUAACGUUAUGGUGAAGGCAUAGUCAAGGGAGCGGCGAAAGUCACACAAACCGG belongs 0.00309.
